# Results reported in the RNAGym collection of RNA variant scans (doi:10.1073/pnas.2313332121).
# Fewer inactive variants are shown than the library holds.
# B1: TPR 5TU (parent)
# chain: GGAUCUUCUCGAUCUAACAAAAAAGACAAAUCUGCCACAAAGCUUGAGAGCAUCUUCGGAUGCAGAGGCGGCAGCCUUCGGUGGCGCGAUAGCGCCAACGUUCUCAACUAUGACACGCAAAACGCGUGCUCCGUUGAAUGGAGUUUAUCAUG
# Variants of: B1
# Assay: polymerase ribozyme fitness, log enrichment relative to wild type (log ratio); higher = more active; in vitro selection for triplet polymerase activity
# How it was run: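 To select mutant libraries of each subunit of a heterodimeric triplet polymerase ribozyme, built by PCR and transcribed, each was annealed with a biotinylated primer, partner subunit and triplets, then incubated frozen at −7 °C. Extended constructs were gel-excised, captured on streptavidin beads and amplified by RT-PCR, in one round carried out in triplicate. Illumina sequencing of input and output libraries kept genotypes with ≥10 input reads and ≥1 read per output. Fitness is the base-2 logarithm of genotype enrichment relative to wild-type enrichment, from inverse-variance-weighted replicate averages.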
row,Variant,polymerase ribozyme fitness (log ratio)
1,C36U C79A C87U A115C A122C C131G,≤ -4.2
2,A37G G58C C85A,-3.83
3,C36G G86A G117U U130A G140A,≤ -4.2
4,A37G A66U C96A C103U,≤ -4.2
5,A37C C43U A73C U77C C93U C116A U135G G136U,≤ -4.2
6,A37G G83U G84A A142G,≤ -4.2
7,C36A C105U U127G,≤ -4.2
8,A37G A39U G50A A142U,≤ -4.2
9,C36A G62C C63U,≤ -4.2
10,C36U G94A C125A,-1.63
11,C35U G136A,0.0897
12,C35U G92U,-0.627
13,A37C A49C C54A U78G C93U G124A,≤ -4.2
14,A37G A52C C95U A98C,-3.46
15,C36U G58A C87A C131U G143A,≤ -4.2
16,C35U U55A G84U A147C,-2.79
17,C36U U44A A122C,-4.15
18,C35U C95G,-1.22
19,C36A C96U U111G,≤ -4.2
20,C36U G71A G94A,≤ -4.2
21,A37C C105U,-0.652
22,C35U C93A A120C G126A A150U,-4
23,C35U C79A G81U C93A U102A U127A,≤ -4.2
24,A37C C85U G88C A137U,≤ -4.2

row,Variant,polymerase ribozyme fitness (log ratio)
1,C35U G46U C96U,-1.23
2,C36U A64C G136A U145C A147C,≤ -4.2
3,A37G C51U A66U G83A U151G,≤ -4.2
4,C35U G92A A122G,-3.92
5,A37G C95U,-2.43
6,A37C G86A,-1.34
7,A37C A47C,-1.24
8,A37C C38U U145C,0.0837
9,C36U G141U A142C,≤ -4.2
10,C36A U45A U61A C87U A97C G126A,≤ -4.2
11,C36A C75U G83A A89C C99G C105U C123A C125A,≤ -4.2
12,C35U C51U G67A G92A C131G G133A U145G,≤ -4.2
13,A37C C38G C85U,-1.28
14,C35U G83A,-0.173
15,A37C C96G A106G,-0.258
16,C35U G86U,-1.43
17,C35U C54G C57G C69U U82A A91U G92A A113G,≤ -4.2
18,A37G A60C,-3.15
19,C36A C93U G100U,≤ -4.2
20,C35U C54G A66U C79A G80A G83C G84A C96U U101G U148C,≤ -4.2
21,C35U G50U G59C A60U C85A G94C G141A,≤ -4.2
22,C35U C116A,-0.104
23,C36U A52G G70U G84A,-2.84
24,A37G C38A C43U C54G G80U U104G,≤ -4.2

row,Variant,polymerase ribozyme fitness (log ratio)
1,A37C U55G G94A,0.0696
2,A37C G70A C85A G92A C93A,≤ -4.2
3,C35U C57U C95G C99G A120U,-3.85
4,C36A C87U G140C,≤ -4.2
5,C35U C99G A119C G141U,-1.83
6,C36A G42A U45G G81A C87A A137C,≤ -4.2
7,A37C A49G C87U A115C,-3.32
8,C35U U44A A49C G74U G80A U109G A121G,≤ -4.2
9,C35U U55G A91G A106G G141A,≤ -4.2
10,C35U G92A C96A,≤ -4.2
11,A37G A47U G81C C95G U102G A120U U134C U135G A137C,≤ -4.2
12,C35U G50U U56A G68A C85U A137C,≤ -4.2
13,C36A A40C G83C A106G U144A,≤ -4.2
14,C36G G84A,-4.19
15,C36U A73U A138U G140C,≤ -4.2
16,C36U U134G U148A,-4.04
17,C35U U55A C96U,-0.218
18,C36A A73G C96U A121C C131U,≤ -4.2
19,C35U C129U,-0.479
20,A37C,0.064
21,A37G,-1.24
22,A37C U55A C96U A113U A137U,-4.18
23,A37C A41G G86C G92U C95U,-3.05
24,C36U C76U C85G,-2.42

row,Variant,polymerase ribozyme fitness (log ratio)
1,A37C G92C G124C,-2.65
2,C36U G50C C85A A110C,≤ -4.2
3,A37C C95U C103G C118G,≤ -4.2
4,A37G C96A U102A C131U G136U,≤ -4.2
5,C36U U55A,-0.574
6,C35U G141A,0.194
7,A37G G94A,-1.49
8,C36G G59U C105G,≤ -4.2
9,C35U G81U U82G G88U G94U U139C C149A,≤ -4.2
10,A37G U45A C96U,≤ -4.2
11,C36U A52G C69U C85U U109G C118A,-3.73
12,A37G A64G G80A G88U G143A,≤ -4.2
13,A37C A60C C69U C85A U146G,-3.76
14,A37G A41C G71A U90A C96U,≤ -4.2
15,A37G A73U G94A A97C G124A,≤ -4.2
16,C36U G50U C54U C99U,-4.14
17,A37G G117U,-2.18
18,C36G G65A G83A A98C,≤ -4.2
19,A37G C93A U145G,-3.99
20,A37C A115U,-1.16
21,A37G U44A A52C G86U C95U U101G U144C,≤ -4.2
22,C35U G92U C116U,0.616
23,A37C G50U G59U G86U,-2.65
24,C36A A122U G126A G136C,≤ -4.2

row,Variant,polymerase ribozyme fitness (log ratio)
1,C35U U101G A110U A138G,≤ -4.2
2,C36U C93G C103G C129A G141C,≤ -4.2
3,C36A G50C U53A U56A C93U A115U,≤ -4.2
4,A37C A60C C85U G126C U146C,-2.23
5,C36A C85U,-3.7
6,C36U U61G,-2.22
7,C36A U45A C87G A91G,≤ -4.2
8,C36G A47G U55C G84U C149A,≤ -4.2
9,C36U G59A U82G A97U,-1.3
10,C36G U55G A73U C108U C118A G133U,-4.17
11,C36U G42A C76U G143A,≤ -4.2
12,A37C C95U G141C,-1.7
13,A37G C51U C72U C95A A138U G143U,≤ -4.2
14,A37C A40C G48C G74A G94A G126C G133A G136A A150U,≤ -4.2
15,C36A U56G C85A,≤ -4.2
16,C36U C75G C96G A121U,≤ -4.2
17,C35U G46A A119G A121U,-1.45
18,C36U G128C G140U,≤ -4.2
19,C36U C54A G65C G67U G68U C95G A110C A113U C116U G143C C149A,≤ -4.2
20,C35U G59C G81A G83A A110G G133C,≤ -4.2
21,C36A G46C C79U G88U U151A,≤ -4.2
22,A37C G92A U146G,-4.01
23,C36A A39C U56C C87U U144G,≤ -4.2
24,A37C A49C C57G C75U A137U G141C,≤ -4.2

row,Variant,polymerase ribozyme fitness (log ratio)
1,A37G U55G C85G,-3.49
2,C36A C87G A107C,≤ -4.2
3,A37G C96U C105G,-3.63
4,A37C G84A U101G G126C U135C,-3.6
5,A37C G71U G86A A106U C132G U145G,≤ -4.2
6,C36U C54A G58A G70A G84A C95A A115U G143U,≤ -4.2
7,A37C G94U A98U,-1.16
8,C35U G71U,-3.53
9,A37C U53A U78A C85A,≤ -4.2
10,A37G A97G A98G,-2.55
11,A37C G58C G65A,-3.6
12,A37G C93U,-3.38
13,A37C C103G,-3.6
14,C36A A47C G59U,≤ -4.2
15,A37G U55A A66G C75U C85A A122U,≤ -4.2
16,A37C C93U G136C G141U,-3.34
17,C35U G58C G71A C93G,-3.09
18,C35U G48A U78C C96G G117C,≤ -4.2
19,A37C C114U,-3.07
20,A37C A47C G88A G100A A137U,≤ -4.2
21,C35U U61A A66C C69U,≤ -4.2
22,C36U C51G U55A G67A C93U,≤ -4.2
23,C36U A41G G83C G84U C116U,-4.09
24,C36U G58U G94A C105U C125U U135C,-3.89

row,Variant,polymerase ribozyme fitness (log ratio)
1,C36U C87G,≤ -4.2
2,A37G A47C G100U G143A,≤ -4.2
3,C35U G42A G65C U77G C87A U101G G143A U151A,≤ -4.2
4,C36A C95U,-3.7
5,A37G U53A U134G,-3.7
6,C35U G88A,-4.1
7,C36A A98U A113U C118U U148A,≤ -4.2
8,A37G U45G C57G C95U,-3.33
9,C36A A60C G71C C79A G84A A91G C93G,≤ -4.2
10,C36A U55A C95G A97U U135A,≤ -4.2
11,A37G A60G G83C C96U G141U,-2.58
12,A37G C38A G48U,-2.25
13,A37G C95G C114U A119U A120G,≤ -4.2
14,A37G C93U G117A G128A,-4.18
15,C35U C95U C96G,-1.52
16,C36U C38A A91U C103A C116A,≤ -4.2
17,A37C G48A C51U G86C G88A,≤ -4.2
18,C36A U82A A98G,-4.01
19,C36G C99G C132U U146C,-4.06
20,C36G U146G,-3.97
21,C36U A142G,-2.16
22,A37C C43U G84A C114A U130G U151G,≤ -4.2
23,C36A A121U,-3.23
